Data from patent US20220356470.

What was measured:
[1] = system: Type I-C Cascade with Cas3-Cas8 tether (Pseudomonas aeruginosa); assay: cell_activity; conditions: smaller deletions than untethered; PAM not stated
[2] = system: Type I-C Cascade-Cas3 D370A (helicase mutant) Cas3 D370A (Pseudomonas aeruginosa); assay: cell_activity; conditions: smaller deletions; PAM not stated

## crRNA targeting 200 bp upstream of phzM ; site 200 bp upstream of phzM
[1]
  activity (% survivors with deletion (17/20)): 85
[2]
  activity (% survivors edited): 25
